Data published in paper PMC3200309 (Cell, 2011).

Experiments:
[1] = target: PTP1B-CASA mutant (C215A, S216A), PTP1B (1-321) (Homo sapiens, UniProt P18031, Cys215 to Ala | Ser216 to Ala); assay: SPR
[2] = target: scFv45 (conformation-sensor single chain variable fragment, purified from E. coli) (chicken); assay: SPR

| Kd [1] | Kd [2] | koff [2] | Binder |
| --- | --- | --- | --- |
| 52 nM |  |  | scFv45 (conformation-sensor single chain variable fragment, purified from E. coli) (scFv, V domains shown) VH: TVTLDESGGGLQAPGGALSLVCKASGFTFSSYDMGWIRQAPGKGLEYVAGITDNGRYASYGSAVDGRATISRDNGQSSVRLQLNNLRAEDTGTYYCARDDGSGWTGNSIDAWGHGTEVIVSS VL: LTQPSSVSANPGGTVKITCSGSSSAYGYGWYQQKSPGSAPVTVIYNNNKRPSNIPSRFSGSKSGSTGTLTITGVQAEDEAVYFCGSEDSSTDAIFGAGTTLTVL |
|  | 46 nM | 0.0023 s⁻¹ | PTP1B-OX, PTP1B (1-321) reversibly oxidized with H2O2 (domain or fragment, active site Cys215 reversibly oxidized (cyclic sulfenyl-amide: S of Cys215 linked to the main-chain N of Ser216)) MEMEKEFEQIDKSGSWAAIYQDIRHEASDFPCRVAKLPKNKNRNRYRDVSPFDHSRIKLHQEDNDYINASLIKMEEAQRSYILTQGPLPNTCGHFWEMVWEQKSRGVVMLNRVMEKGSLKCAQYWPQKEEKEMIFEDTNLKLTLISEDIKSYYTVRQLELENLTTQETREILHFHYTTWPDFGVPESPASFLNFLFKVRESGSLSPEHGPVVVHCSAGIGRSGTFCLADTCLLLMDKRKDPSSVDIKKVLLEMRKFRMGLIQTADQLRFSYLAVIEGAKFIMGDSSVQDQWKELSHEDLEPPPEHIPPPPRPPKRILEPHN |
